± gives the uncertainty stated by the source.

To fix the notation:
B1: POU domain, class 3, transcription factor 2, residues 262 to 338; numbered along this chain, P20265 (parent)
chain: EDTPTSDDLEQFAKQFKQRRIKLGFTQADVGLALGTLYGNVFSQTTICRFEALQLSFKNMCKLKPLLNKWLEEADSS

Variants of B1 are the subject of the series. Briefly: abundance fitness (aPCA) (normalised: wild type 0, dead -1); higher = more abundant; growth selection in yeast, the domain comes from the species named. To be noted: Homo sapiens.
As for EDTPTSDDLEQFAKQFKQRRIKLGFTQADVGLALGTLYGNVFSQTTICRFEANQLSFKNMCKLKPLLNKWLEEADSS [L53N], the abundance fitness was -0.022 ± 0.11.

For the variant EDTPTSDDLEQFAKQFKQRRIKLGFTQADVGLALGTLYGNVFSQTTICRFEAFQLSFKNMCKLKPLLNKWLEEADSS [L53F], the abundance fitness is -0.09 ± 0.061.

Take EDTPTSDDLEQFAKQFKQRRIKLGFTQADVGLALGTLYGNVFSQTTICRFEAAQLSFKNMCKLKPLLNKWLEEADSS [L53A]: the abundance fitness worked out at 0.016 ± 0.034.

Take EDTPTSDDLEQFAKQFKQRRIKLGFTQADVGLALGTLYGNVFSQTTICRFEACQLSFKNMCKLKPLLNKWLEEADSS [L53C]: the abundance fitness came to 0.044 ± 0.042.

As to EDTPTSDDLEQFAKQFKQRRIKLGFTQADVGLALGTLYGNVFSQTTICRFEALQQSFKNMCKLKPLLNKWLEEADSS [L55Q], the abundance fitness is -0.506 ± 0.064.

Consider EDTPTSDDLEQFAKQFKQRRIKLGFTQADVGLALGTLYGNVFSQTTICRFEALQSSFKNMCKLKPLLNKWLEEADSS [L55S], for which the abundance fitness is -0.504 ± 0.045.

Take EDTPTSDDLEQFAKQFKQRRIKLGFTQADVGLALGTLYGNVFSQTTICRFEALQTSFKNMCKLKPLLNKWLEEADSS [L55T]: the abundance fitness is -0.583 ± 0.069.

Regarding EDTPTSDDLEQFAKQFKQRRIKLGFTQADVGLALGTLYGNVFSQTTICRFEALQDSFKNMCKLKPLLNKWLEEADSS [L55D], the abundance fitness is -0.369 ± 0.061.

EDTPTSDDLEQFAKQFKQRRIKLGFTQADVGLALGTLYGNVFSQTTICRFEALQASFKNMCKLKPLLNKWLEEADSS [L55A]: the abundance fitness is -0.567 ± 0.048.

In the case of EDTPTSDDLEQFAKQFKQRRIKLGFTQADVGLALGTLYGNVFSQTTICRFEALQHSFKNMCKLKPLLNKWLEEADSS [L55H], the abundance fitness was -0.266 ± 0.08.

As to EDTPTSDDLEQFAKQFKQRRIKLGFTQADVGLALGTLYGNVFSQTTICRFEALQGSFKNMCKLKPLLNKWLEEADSS [L55G], the abundance fitness is -0.61 ± 0.031.

Take EDTPTSDDLEQFAKQFKQRRIKLGFTQADVGLALGTLYGNVFSQTTICRFEALQPSFKNMCKLKPLLNKWLEEADSS [L55P]: the abundance fitness was -0.586 ± 0.099.

As for EDTPTSDDLEQFAKQFKQRRIKLGFTQADVGLALGTLYGNVFSQTTICRFEALQFSFKNMCKLKPLLNKWLEEADSS [L55F], the abundance fitness is -0.277 ± 0.063.

With EDTPTSDDLEQFAKQFKQRRIKLGFTQADVGLALGTLYGNVFSQTTICRFEALQCSFKNMCKLKPLLNKWLEEADSS [L55C], the abundance fitness is -0.318 ± 0.045.

Consider EDTPTSDDLEQFAKQFKQRRIKLGFTQADVGLALGTLYGNVFSQTTICRFEALQISFKNMCKLKPLLNKWLEEADSS [L55I], for which the abundance fitness is -0.364 ± 0.099.

Turning to EDTPTSDDLEQFAKQFKQRRIKLGFTQADVGLALGTLYGNVFSQTTICRFEALQNSFKNMCKLKPLLNKWLEEADSS [L55N], the abundance fitness was -0.633 ± 0.16.

As to EDTPTSDDLEQFAKQFKQRRIKLGFTQADVGLALGTLYGNVFSQTTICRFEALQKSFKNMCKLKPLLNKWLEEADSS [L55K], the abundance fitness was -0.409 ± 0.066.

On to EDTPTSDDLEQFAKQFKQRRIKLGFTQADVGLALGTLYGNVFSQTTICRFEALQESFKNMCKLKPLLNKWLEEADSS [L55E], for which the abundance fitness was -0.298 ± 0.037.

On to EDTPTSDDLEQFAKQFKQRRIKLGFTQADVGLALGTLYGNVFSQTTICRFEQLQLSFKNMCKLKPLLNKWLEEADSS [A52Q], for which the abundance fitness amounted to 0.056 ± 0.04.

For the variant EDTPTSDDLEQFAKQFKQRRIKLGFTQADVGLALGTLYGNVFSQTTICRFERLQLSFKNMCKLKPLLNKWLEEADSS [A52R], the abundance fitness is -0.181 ± 0.029.

EDTPTSDDLEQFAKQFKQRRIKLGFTQADVGLALGTLYGNVFSQTTICRFECLQLSFKNMCKLKPLLNKWLEEADSS [A52C]: the abundance fitness is -0.137 ± 0.065.

For the variant EDTPTSDDLEQFAKQFKQRRIKLGFTQADVGLALGTLYGNVFSQTTICRFEHLQLSFKNMCKLKPLLNKWLEEADSS [A52H], the abundance fitness is -0.213 ± 0.1.

As for EDTPTSDDLEQFAKQFKQRRIKLGFTQADVGLALGTLYGNVFSQTTICRFESLQLSFKNMCKLKPLLNKWLEEADSS [A52S], the abundance fitness amounted to 0.015 ± 0.033.

On to EDTPTSDDLEQFAKQFKQRRIKLGFTQADVGLALGTLYGNVFSQTTICRFEKLQLSFKNMCKLKPLLNKWLEEADSS [A52K], for which the abundance fitness was -0.07 ± 0.04.

Take EDTPTSDDLEQFAKQFKQRRIKLGFTQADVGLALGTLYGNVFSQTTICRFEDLQLSFKNMCKLKPLLNKWLEEADSS [A52D]: the abundance fitness was determined as 0.003 ± 0.051.

In the case of EDTPTSDDLEQFAKQFKQRRIKLGFTQADVGLALGTLYGNVFSQTTICRFEGLQLSFKNMCKLKPLLNKWLEEADSS [A52G], the abundance fitness is -0.078 ± 0.024.

As for EDTPTSDDLEQFAKQFKQRRIKLGFTQADVGLALGTLYGNVFSQTTICRFEMLQLSFKNMCKLKPLLNKWLEEADSS [A52M], the abundance fitness is -0.091 ± 0.039.

On to EDTPTSDDLEQFAKQFKQRRIKLGFTQADVGLALGTLYGNVFSQTTICRFELLQLSFKNMCKLKPLLNKWLEEADSS [A52L], for which the abundance fitness is -0.111 ± 0.037.

Regarding EDTPTSDDLEQFAKQFKQRRIKLGFTQADVGLALGTLYGNVFSQTTICRFETLQLSFKNMCKLKPLLNKWLEEADSS [A52T], the abundance fitness was -0.02 ± 0.036.

For the variant EDTPTSDDLEQFAKQFKQRRIKLGFTQADVGLALGTLYGNVFSQTTICRFEILQLSFKNMCKLKPLLNKWLEEADSS [A52I], the abundance fitness is -0.632 ± 0.13.

With EDTPTSDDLEQFAKQFKQRRIKLGFTQADVGLALGTLYGNVFSQTTICRFEELQLSFKNMCKLKPLLNKWLEEADSS [A52E], the abundance fitness is 0.048 ± 0.031.

For EDTPTSDDLEQFAKQFKQRRIKLGFTQADVGLALGTLYGNVFSQTTICRFEFLQLSFKNMCKLKPLLNKWLEEADSS [A52F], the abundance fitness is -0.844 ± 0.46.

Take EDTPTSDDLEQFAKQFKQRRIKLGFTQADVGLALGTLYGNVFSQTTICRFEYLQLSFKNMCKLKPLLNKWLEEADSS [A52Y]: the abundance fitness is -0.534 ± 0.17.

As to EDTPTSDDLEQFAKQFKQRRIKLGFTQADVGLALGTLYGNVFSQTTICRFEWLQLSFKNMCKLKPLLNKWLEEADSS [A52W], the abundance fitness was -0.552 ± 0.054.

With EDTPTSDDLEQFAKQFKQRRIKLGFTQADVGLALGTLYGNVFSQTTICRFEVLQLSFKNMCKLKPLLNKWLEEADSS [A52V], the abundance fitness was -0.615 ± 0.043.

Consider EDTPTSDDLEQFAKQFKQRRIKLGFTQADVGLALGTLYGNVFSQTTICRFENLQLSFKNMCKLKPLLNKWLEEADSS [A52N], for which the abundance fitness turned out to be 0.008 ± 0.062.
